B1: variant 5-60 (Fc fusion)
VHH: EVQLVESGGGLVQPGGSLRLSCAASGRSFSSHRMGWFRQAPGKEREFVAAIMWSGSHRNYADSVKGRFTISADNSKNTAYLQMNSLKPEDTAVYYCAAIAYEEGVYRWDWGQGTLVTVSS
B2: variant 5-32 (Fc fusion)
VHH: EVQLVESGGGLVQPGGSLRLSCAASGFTPDNYAMGWFRQAPGKEREFVAALGWSGVTTYHYYADSVKGRFTISADNSKNTAYLQMNSLKPEDTAVYYCASDESDAANWGQGTLVTVSS
B3: variant 5-23 (Fc fusion)
VHH: EVQLVESGGGLVQPGGSLRLSCAASGSIFSIDVMGWFRQAPGKEREFVAAISWSGESTLYADSVKGRFTISADNSKNTAYLQMNSLKPEDTAVYYCAAFDGYSGSDWGQGTLVTVSS
B4: variant 5-3 (Fc fusion)
VHH: EVQLVESGGGLVQPGGSLRLSCAASGSIFSIDVMGWFRQAPGKEREFVAGISWSGDSTLYADSVKGRFTISADNSKNTAYLQMNSLKPEDTAVYYCAAFDGYTGSDWGQGTLVTVSS
B5: variant 6-4 (Fc fusion)
VHH: EVQLVESGGGLVQPGGSLRLSCAASGFTRDYYTMGWFRQAPGKEREFVAAISRSGSLTSYADSVKGRFTISADNSKNTAYLQMNSLKPEDTAVYYCANLAYYDSSGYYDYWGQGTLVTVSS
B6: variant 5-56 (Fc fusion)
VHH: EVQLVESGGGLVQPGGSLRLSCAASGRTFSSNMGWFRQAPGKEREFVARIFGGDRTLYADSVKGRFTISADNSKNTAYLQMNSLKPEDTAVYYCADINGDWGQGTLVTVSS
B7: variant 5-29 (Fc fusion)
VHH: EVQLVESGGGLVQPGGSLRLSCAASGFTFDDYPMGWFRQAPGKEREGVASVLRGGYTWYADSVKGRFTISADNSKNTAYLQMNSLKPEDTAVYYCAKDWATGLAWGQGTLVTVSS
B8: variant 5-15 (Fc fusion)
VHH: EVQLVESGGGLVQPGGSLRLSCAASGFTFDGAAMGWFRQAPGKEREFVATIRWTNSTDYADSVKGRFTISADNSKNTAYLQMNSLKPEDTAVYYCARGRYGIVERWGQGTLVTVSS
B9: variant 5-28 (Fc fusion)
VHH: EVQLVESGGGLVQPGGSLRLSCAASGGTFSVFAMGWFRQVPGKERELVAEITAGGSTYYADSVKGRFTISADNSKNTAYLQMNSLKPEDTAVYYCAVDGPFGWGQGTLVTVSS
B10: variant 5-59 (Fc fusion)
VHH: EVQLVESGGGLVQPGGSLRLSCAASGLTFSLYRMCWFRQAPGKEREEVSCISNIDGSTYYADSVKGRFTISADNSKNTAYLQMNSLKPEDTAVYYCAADLLGDSDYEPSSGFGWGQGTLVTVSS
B11: variant 6-2 (Fc fusion)
VHH: EVQLVESGGGLVQPGGSLRLSCAASGFTMSSSWMGWFRQAPGKEREFVTVISGVGTSYADSVKGRFTISADNSKNTAYLQMNSLKPEDTAVYYCARGPDSSGYGFDYWGQGTLVTVSS
B12: variant 5-26 (Fc fusion)
VHH: EVQLVESGGGLVQPGGSLRLSCAASGRTISSYIMGWFRQAPGKERELVARIYTGGDTIYADSVKGRFTISADNSKNTAYLQMNSLKPEDTAVYYCAARTSYNGRYDYIDDYSWGQGTLVTVSS
B13: variant 5-63 (Fc fusion)
VHH: EVQLVESGGGLVQPGGSLRLSCAASGFSLDYYDMGWFRQAPGKEREFVAALGWSGGSTDYADSVKGRFTISADNSKNTAYLQMNSLKPEDTAVYYCAAGNGGRYGIVERWGQGTLVTVSS
B14: variant 5-16 (Fc fusion)
VHH: EVQLVESGGGLVQPGGSLRLSCAASGRTHSIYPMGWFRQAPGKERELVAAIHSGGATVYADSVKGRFTISADNSKNTAYLQMNSLKPEDTAVYYCAARRWIPPGPIWGQGTLVTVSS
B15: variant 5-21 (Fc fusion)
VHH: EVQLVESGGGLVQPGGSLRLSCAASGGTFTTYHMGWFRQAPGKEREFVAHISTGGATNYADSVKGRFTISADNSKNTAYLQMNSLKPEDTAVYYCATFPAIVTDSDYDLGNDWGQGTLVTVSS
B16: variant 5-49 (Fc fusion)
VHH: EVQLVESGGGLVQPGGSLRLSCAASGRTSTVNGMGWFRQAPGKEREFVASISQSGAATAYADSVKGRFTISADNSKNTAYLQMNSLKPEDTAVYYCAADRTYSYSSTGYYWGQGTLVTVSS
B17: variant 5-67 (Fc fusion)
VHH: EVQLVESGGGLVQPGGSLRLSCAASGFNVNDYAMGWFRQAPGKEREFVAGITSSVGVTNYADSVKGRFTISADNSKNTAYLQMNSLKPEDTAVYYCAADIFFVNWGRGTLVTVSS
B18: variant 5-55 (Fc fusion)
VHH: EVQLVESGGGLVQPGGSLRLSCAASGIDVNRNAMGWFRQAPGKEREFVAAITWSGGWRYYADSVKGRFTISADNSKNTAYLQMNSLKPEDTAVYYCATTFGDAGIPDQYDFGWGQGTLVTVSS
B19: variant 5-52 (Fc fusion)
VHH: EVQLVESGGGLVQPGGSLRLSCAASGEKFSDHWMGWFRQAPGKEREFVATITFSGARTAYADSVKGRFTISADNSKNTAYLQMNSLKPEDTAVYYCAALIKPSSTDRIFEEWGQGTLVTVSS
B20: variant 5-65 (Fc fusion)
VHH: EVQLVESGGGLVQPGGSLRLSCAASGNIDRLYAMGWFRQAPGKEREGVAAIDSDGSTDYADSVKGRFTISADNSKNTAYLQMNSLKPEDTAVYYCAALIDYGLGFPIEWGQGTLVTVSS
B21: variant 5-42 (Fc fusion)
VHH: EVQLVESGGGLVQPGGSLRLSCAASGFTPDDYAMGWFRQAPGKEREFVASIGYSGRSNSYNYYADSVKGRFTISADNSKNTAYLQMNSLKPEDTAVYYCAIAHGSSTYNWGQGTLVTVSS
B22: variant 6-3 (Fc fusion)
VHH: EVQLVESGGGLVQPGGSLRLSCAASGFTFSPSWMGWFRQAPGKEREFVATINEYGGRNYADSVKGRFTISADNSKNTAYLQMNSLKPEDTAVYYCARVDRDFDYWGQGTLVTVSS
notes: VHH-Fc
B23: variant 6-77 (Fc fusion)
VHH: EVQLVESGGGLVQPGGSLRLSCAASGFTFDRSWMGWFRQAPGKEREFVAAVTEGGTTSYADSVKGRFTISADNSKNTAYLQMNSLKPEDTAVYYCARADYDFDYWGQGTLVTVSS
B24: variant 6-30 (Fc fusion)
VHH: EVQLVESGGGLVQPGGSLRLSCAASGFAFGDSWMGWFRQAPGKEREFVATINWSGVTAYADSVKGRFTISADNSKNTAYLQMNSLKPEDTAVYYCARADGYFDYWGQGTLVTVSS
B25: variant 5-50 (Fc fusion)
VHH: EVQLVESGGGLVQPGGSLRLSCAASGFSLDYYGMGWFRQAPGKEREFVAAITSGGTPHYADSVKGRFTISADNSKNTAYLQMNSLKPEDTAVYYCASAYNPGIGYDWGQGTLVTVSS
B26: variant 6-1 (Fc fusion)
VHH: EVQLVESGGGLVQPGGSLRLSCAASGRTFGNYNMGWFRQAPGKEREFVATINSLGGTSYADSVKGRFTISADNSKNTAYLQMNSLKPEDTAVYYCARVDYYMDVWGQGTLVTVSS
B27: variant 5-64 (Fc fusion)
VHH: EVQLVESGGGLVQPGGSLRLSCAASGTSISNRVMGWFRQAPGKERELVARIYTGGDTLYADSVKGRFTISADNSKNTAYLQMNSLKPEDTAVYYCAARKIYRSLSYYGDYDWGQGTLVTVSS
B28: variant 5-27 (Fc fusion)
VHH: EVQLVESGGGLVQPGGSLRLSCAASGRANSINWMGWFRQAPGKEREFVATITPGGNTNYADSVKGRFTISADNSKNTAYLQMNSLKPEDTAVYYCAAAAGSTWYGTLYEYDWGQGTLVTVSS
B29: variant 5-51 (Fc fusion)
VHH: EVQLVESGGGLVQPGGSLRLSCAASGRPNSINWMGWFRQAPGKERQFVATITPGGNTNYADSVKGRFTISADNSKNTAYLLMNSLKPEDTAVYYCAAAAGTTWYGTLYEYDWGQGTLVTVSS
B30: variant 5-22 (Fc fusion)
VHH: EVQLVESGGGLVQPGGSLRLSCAASGFTFNVFAMGWFRQAPGKEREFVAAINWSDSRTDYADSVKGRFTISADNSKNTAYLQMNSLKPEDTAVYYCASGSDNRARELSRYEYVWGQGTLVTVSS
B31: variant 5-13 (Fc fusion)
VHH: EVQLVESGGGLVQPGGSLRLSCAASGFTFDYYTMGWFRQAPGKEREFVAAIRSSGGLFYADSVKGRFTISADNSKNTAYLQMNSLKPEDTAVYYCAAYLDGYSGSWGQGTLVTVSS
B32: variant 5-68 (Fc fusion)
VHH: EVQLVESGGGLVQPGGSLRLSCAASGFTFDHYTMGWFRQAPGKEREFVAAISGSENVTSYADSVKGRFTISADNSKNTAYLQMNSLKPEDTAVYYCAAEPYIPVRTMRHMTFLTWGQGTLVTVSS
B33: variant 5-17 (Fc fusion)
VHH: EVQLVESGGGLVQPGGSLRLSCAASGPTFSIYAMGWFRQAPGKEREFVAGIRWSDVYTQYADSVKGRFTISADNSKNTAYLQMNSLKPEDTAVYYCALDIDYRDWGQGTLVTVSS
B34: variant 5-39 (Fc fusion)
VHH: EVQLVESGGGLVQPGGSLRLSCAASGVTLDLYAMGWFRQAPGKEREFVAGIRWTDAYTEYADSVKGRFTISADNSKNTAYLQMNSLKPEDTAVYYCAVDIDYRDWGQGTLVTVSS
B35: variant 5-47 (Fc fusion)
VHH: EVQLVESGGGLVQPGGSLRLSCAASGFTFGSYDMGWFRQAPGKEREFVTAINWSGARTAYADSVKGRFTISADNSKNTAYLQMNSLKPEDTAVYYCAARSVYSYEYNWGQGTLVTVSS

Target: T1, Acro SARS-CoV-2 (COVID-19) S1 protein (SARS-CoV-2, UniProt P0DTC2 16-685)
T1 construct: also called SARS-CoV-2 S1
Assay: SPR

Binder | Kd
B1 | 29.4 nM
B2 | 22.4 nM
B3 | 84.8 nM
B4 | 64.6 nM
B5 | 45.8 nM
B6 | 54.3 nM
B7 | 42.4 nM
B8 | 96.2 nM
B9 | 40 nM
B10 | 113 nM
B11 | 29.9 nM
B12 | 21800 nM
B13 | 10.5 nM
B14 | 50.2 nM
B15 | 1070 nM
B16 | 74.5 nM
B17 | 22.1 nM
B18 | 63.5 nM

Binder | Kd
B19 | 99 nM
B20 | 353 nM
B21 | 116 nM
B22 | 12.4 nM
B23 | 24.6 nM
B24 | 11.8 nM
B25 | 60.5 nM
B26 | 35.8 nM
B27 | 346 nM
B28 | 92.9 nM
B29 | 25.5 nM
B30 | 109 nM
B31 | 37.5 nM
B32 | 111 nM
B33 | 3630 nM
B34 | 118 nM
B35 | 27.7 nM
